Data from patent publication US20250215091A1, “Anti-GAL3 Antibodies and Compositions” (Les Laboratoires Servier, priority 2022, published 2025).

How the values were obtained:
[1] = test system: human Gal3 full-length (Hu-Gal3-FL) and CRD domain (Hu-Gal3-CRD); assay: IgG cross-reactivity ELISA on human Gal3; assay type: binding; conditions: purified IgGs 15-20 μg/mL; FIG. 3
Description: (§1) Anti-Gal3 antibodies human/mouse cross-reactivity was tested by ELISA on human Gal3 full-length (Hu-Gal3-FL) and CRD domain (Hu-Gal3-CRD), and on murine Gal3 (m-Gal3-FL).
(§2) Hu-Gal3-FL, Hu-Gal3-CRD and m-Gal3-FL were immobilized at 3 μg/mL via their histidine tag on functionalized microplates. Purified IgGs were added into the wells (15-20 μg/mL final concentration) and detected with an anti-Fab.HRP antibody. A control rabbit antibody directed against Hu-Gal3 (Abcam ab53082 reference) was used at 5 μg/mL as antigen-coating positive control and detected with an anti-rabbit.HRP secondary antibody (7074S-Cell Signaling reference).

murine Gal3 (m-Gal3-FL) = molecular target: T1, murine Gal3 (m-Gal3-FL) (Mus musculus, UniProt P16110); assay: IgG cross-reactivity ELISA on murine Gal3; assay type: binding; conditions: purified IgGs 15-20 μg/mL; FIG. 3
T1 construct: Determination of Kd values on human and mouse full-length Gal3; purchased Novalix
Description: as §1, §2

Hu-Gal3-FL = molecular target: T2, Hu-Gal3-FL (Homo sapiens, UniProt P17931); assay: ELISA dose-response EC50 on human Gal3; conditions: ELISA binding on Hu-Gal3-FL
T2 construct: made in house
Description: (§3) To determine the half maximal effective concentration (EC50) of the antibodies, ELISA dose-response experiments were performed on Hu-Gal3-FL and on m-Gal3-FL.
(§4) Hu-Gal3-FL and m-Gal3-FL were immobilized at 3 μg/mL through their His-tag on functionalized microplates as before. A 3.3-fold serial dilution was carried-out with the purified IgGs, added to the wells containing immobilized Hu-Gal3-FL or m-Gal3-FL and detected with an anti-Fab.HRP antibody.
(§5) Human/mouse Gal3 EC50 ratio were estimated according to EC50 values (sigmoidal dose-response equation: Y=Bottom+X*(Top−Bottom)/(EC50+X)), a low ratio indicating a high cross-reactivity.

m-Gal3-FL = molecular target: T3, m-Gal3-FL (Mus musculus, UniProt P16110); assay: ELISA dose-response EC50 on mouse Gal3; conditions: ELISA binding on m-Gal3-FL
T3 construct: made in house
Description: as §3, §4, §5

[2] = molecular target: T4, recombinant human Gal3 full-length (Hu-Gal3-FL) (Homo sapiens, UniProt P17931); assay: SPR (Biacore T-200) affinity on human full-length Gal3; assay type: binding; conditions: full-length Gal3, 25° C.
T4 construct: recombinant human Gal3 full-length (Hu-Gal3-FL); purchased Novalix
Description: The interaction of the anti-Gal3 antibody with recombinant human Gal3 full-length (Hu-Gal3-FL) and murine Gal3 (m-Gal3-FL) (from Novalix) was monitored by surface plasmon resonance (SPR) detection using a Biacore T-200 instrument.
Binding studies were performed in freshly prepared, filtered and degassed running buffer containing 10 mM HEPES, 150 mM NaCl, and 0.05% P20 (HBS-P, Cytiva Life Sciences) at 25° C. Before performing the binding studies, the CM5 sensor surface immobilized with anti-human Fc mAb was equilibrated with HBS-P by priming the instrument at least three to four times.
The CM5 sensor surface was first immobilized with an anti-human Fc mAb using a standard protocol. The entire sensor surface was first activated by injecting a 1:1 (v/v) mixture of 400 mM EDC and 100 mM NHS at a flow rate of 10 μL/minute for 7 minutes. Monoclonal anti-human Fc antibody (Millipore AP113), 25 μg/mL in Na acetate pH5, 360 s were flowed at 10 μL/minute to reach 10000 RU on both flow cells followed by the injection of 1 M ethanolamine, pH8.5 for 7 minutes at a flow rate of 10 μL/minute. During the entire immobilization procedure, HBS-P was used as the running buffer.
Antibody samples were prepared at 5 μg/ml and were injected for 30 seconds at 10 μL/minute. In general, 400 to 680 resonance units of antibodies were captured on the chip.

T2 sequence (P17931 whole entry): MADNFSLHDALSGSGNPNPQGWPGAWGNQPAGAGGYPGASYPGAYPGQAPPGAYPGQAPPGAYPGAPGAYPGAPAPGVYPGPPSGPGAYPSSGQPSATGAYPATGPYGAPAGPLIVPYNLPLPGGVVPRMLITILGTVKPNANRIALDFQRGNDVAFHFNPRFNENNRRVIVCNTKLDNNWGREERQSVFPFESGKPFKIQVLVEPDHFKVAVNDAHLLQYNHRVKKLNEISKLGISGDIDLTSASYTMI
T1 sequence (P16110 whole entry): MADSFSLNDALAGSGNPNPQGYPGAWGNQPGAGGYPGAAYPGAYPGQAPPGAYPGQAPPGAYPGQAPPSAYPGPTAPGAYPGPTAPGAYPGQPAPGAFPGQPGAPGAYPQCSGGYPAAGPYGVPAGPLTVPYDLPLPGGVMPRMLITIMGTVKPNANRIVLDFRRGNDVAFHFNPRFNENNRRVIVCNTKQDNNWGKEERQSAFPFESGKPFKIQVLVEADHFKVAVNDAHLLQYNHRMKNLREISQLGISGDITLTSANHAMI
T3 sequence (P16110 whole entry): as above
T4 sequence (P17931 whole entry): as the sequence (P17931 whole entry) above
human Gal3 full-length (Hu-Gal3-FL) and CRD domain (Hu-Gal3-CRD), sequence (P17931 118-250 limits assumed): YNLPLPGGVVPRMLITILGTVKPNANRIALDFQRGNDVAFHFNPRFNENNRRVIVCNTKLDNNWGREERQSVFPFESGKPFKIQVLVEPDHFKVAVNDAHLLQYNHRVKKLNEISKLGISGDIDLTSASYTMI

Row | Molecule | IgG binding to human Gal3 (Hu-Gal3-FL, Hu-Gal3-CRD) by ELISA [1] | IgG binding to murine Gal3 (m-Gal3-FL) by ELISA (murine Gal3 (m-Gal3-FL)) | hGal3 EC50 (Hu-Gal3-FL) | mGal3 EC50 (m-Gal3-FL) | Kd [2] [nM]
1 | B12: anti-Gal3 monoclonal antibody, IgG1 format; VH SEQ ID NO 54, VL SEQ ID NO 55 (antibody, V domains shown, IgG1 constant region) VH: EVQLVESGGSLVKPGGSLRLSCAASGFTFSNDDMNWVRQAPGKGLEWISSIDGSSRSIYYADFVKGRFTISRDNAKNSLYLQMNSLRAEDTAVYYCVRSSGYSGGGMDVWGRGTLVTVSS VL: QSVLTQPASVSGSPGQSITISCAGTSSDVGGSYNVAWYQQHPGKAPKLMIYSDSYRPSGVSNRFSGSKSGNTASLTISGLQAEDEADYYCSSYTSNSARVFGGGTKLEIK | Lower binding signals | Lower binding signals | too high to be determined | too high to be determined | 
2 | H10-G1: germline framework variant of H10; Table 3 lists H10-G with VH SEQ ID NO 90, VL SEQ ID NO 91 (antibody, V domains shown) VH: EVQLVESGGGLVKPGGSLRLSCAASGFTFSNYYMNWVRQAPGKGLEWISYINGASRDISYADSVKGRFTISRDNAKNSLYLQMNSLRAEDTAVYYCVRSSYGYSNYGSGMDVWGRGTLVTVSS VL: QSALTQPASVSGSPGQSITISCTGTSSDVGGSYNVAWYQQHPGKAPKLMIYNDANRPSGVSNRFSGSKSGNTASLTISGLQAEDEADYYCSSNTADSTRVFGGGTKLEIK |  |  |  |  | 4.9
3 | E12: anti-Gal3 monoclonal antibody, IgG1 format; VH SEQ ID NO 56, VL SEQ ID NO 57 (antibody, V domains shown) VH: EVQLVESGGSLVKPGGSLRLSCAASGFTFSNYAMNWVRQAPGKGLEWISSIYGSSRSIYYADFVKGRFTISRDNAKNSLYLQMNSLRAEDTAVYYCVRSNNAGMDVWGRGTLVTVSS VL: QSVLTQPASVSGSPGQSITISCAGTSSDVGGYYDVSWYQQHPGKAPKLMIYYDSYRPSGVSNRFSGSKSGNTASLTISGLQAEDEADYYCSSYTSYSTRVFGGGTKLEIK |  | much lower on the m-Gal3 than on the Hu-Gal3-FL and Hu-Gal3-CRD | too high to be determined | too high to be determined | 
